Results published in US20240190947A1 (BIO TECHNE, published 2024).

Molecular target: T1, SARS-CoV-2 S1 RBD His-tagged protein (SARS-CoV-2, UniProt P0DTC2 319-541)
T1 construct: domain: S1 RBD; also called rSARS-CoV-2 S1 RBD; SARS-CoV2 RBD
Assay: direct ELISA, HEK293 transfection medium

B1: 70009-2 VHH clone (VHH)
VHH: QLQLVESGGGLVQPGGSLRLSCAASTLTLNSYAIGWFRQAPGKEREAVSCTSSSGDMTYYTNSVKGRFTISRDNAKNTVYLQMSRLKPDDTAVYYCAAVLLEYGYVCSHPNEYDYWGQGTQVTVSS
  binding result: binds
